Experimental data taken from the RNAGym collection of RNA variant scans (doi:10.1073/pnas.2313332121).

B1: TPR t1 (parent)
chain: GACCAAUCUGCCCUCAGAGCUCGAGAACAUCUUCGGAUGCAGAGGAGGCAGGCUUCGGUGGCGCGAUAGCGCCAACGUCCUCAACCUCCAAUGCAUCCCACCACAUGAUGAUGCCUGAAGAGCCUUGGUUUUUUG

Variants of: B1
Test: polymerase ribozyme fitness, log enrichment relative to wild type (log ratio); higher = more active; in vitro selection for triplet polymerase activity
Procedure, shortened: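 Libraries of mutants in each subunit of a heterodimeric triplet polymerase ribozyme were generated by PCR and transcribed. In triplicate, each went through one in vitro selection round: annealing with biotinylated primer, partner subunit and triplets; frozen incubation at −7 °C; gel excision of extended constructs; streptavidin-bead capture; RT-PCR. Fitness, taken from Illumina sequencing of input and output libraries, is the logarithm of a genotype's enrichment over wild-type enrichment, averaged across replicates with inverse-variance weights. The logarithm is base 2, and genotypes needed ≥10 input reads and ≥1 read per output to be kept.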

In order of falling “polymerase ribozyme fitness (log ratio)” value:
1. C53A C94U C104U U112C  1.78
2. U54C G57C U112C  1.77
3. C53U G57U A121C  1.4
4. U54C C98U A121U  1.37
5. C53G C64U G120A  1.12
6. C53G C62U C72A C124U  0.806
7. C53G G120A  0.668
8. C53U C56G C101A A121C G135C  0.621
9. C53A A66U C72U C123U  0.234
10. C53A G122U C123A  0.198
11. U54A C101U G120A  0.15
12. C53G G57U  0.0545
13. G52A A74G G122A C124U  0.026
14. G52A C101U  0.00367
15. U54C C72U  -0.0207
16. C53A C86U  -0.0407
17. C53A C56G C70U U132A  -0.0503
18. C53U U78G  -0.118
19. C53U C73A  -0.168
20. C53U C73U  -0.178
21. C53A G69U U78G C82A  -0.279
22. C53A A74U A95C G120A  -0.291
23. C53G U106A  -0.474
24. G52A G61A U132A  -0.488
25. G52A G93A  -0.652
26. U54A G69U  -0.707
27. U54A G57U U78A A95U G120U  -0.728
28. C53U U78C  -0.767
29. U54A C64U C72U C86A  -0.948
30. C53G G61A C88A A111U U112G C124A  -1
31. U54A G69C  -1.12
32. C53G A74G C115U  -1.15
33. U54A C72U C97U  -1.24
34. C53A U78C C104A  -1.25
35. C53U U78G C79A  -1.4
36. C53U C101G  -1.42
37. G52A A66G  -1.47
38. C53G G135U  -1.51
39. G51U C82G A83U U87A  -1.52
40. U54A U55A G61A A74G  -1.53
41. U54A G113A  -1.58
42. C53G G110U  -1.58
43. C53U U81A  -1.63
44. G52U U59A G113C A119G  -1.67
45. U54G C62U U81A  -1.77
46. C53A U116G  -1.78
47. G52A G135U  -1.86
48. C53G C72U C104A  -1.89
49. U54A C88G  -1.9
50. G51U C76A U106A  -2
51. G52U C53G G60C C80A C94U  -2.08
52. U54A G60C G113C  -2.11
53. C53A C56A A84G U106C G113A  -2.51
54. C53A C85A G135U  -2.53
55. C53G G63A  -2.58
56. C53U G57U C62G  -2.6
57. C53G C89U C115U  -2.67
58. C53U U92G  -2.82
59. C53U C72A A90U C101A  -2.92
60. C53G C73A A105C  -3.2
61. G52U C53U C62U C85U U129A  -3.42
62. C53A A83G A105C  -3.47
63. G51U C104U  -3.67
64. G51C C64U  -3.9
65. G52U C114U U125A  -4.04
66. C53G A68G U87G  -4.16
67. U54G C80G C123U  -4.41
68. U54C C56A C85G G117A  -4.42
69. U54G C56U A121G C124A  -4.56
70. U54C C79G U125C  -4.66
71. C53A A103U  -4.67
72. G52A C79A G110C  -5.08
73. C53G G60U C104A C114U  -5.11
74. G51C G93U  -5.19
75. C53U C80A U131A  -5.6
76. G51C U59A C82U C98U  -5.66
77. G51U G57A C76A G110U G122U  -5.8
78. C53U G69A A91U G110A G113U G128U  -5.88
79. G52A G69A A90C U116G G117C A118G  -6.12
80. U54A A66G C70G C124U U129G  -6.53
81. G52U C64G C94U U106A A119G  -6.74
82. C53G G57A A66G C70A G113U  -7.08
83. G51U U55A C73U U78G C98U A105U  -7.15
